Target: Full-length ectodomain of human LRP1 (LRP1-ECD) (human, UniProt Q07954-1 20-4414)
Assay: SEC

Sequence of Full-length ectodomain of human LRP1 (LRP1-ECD) (Q07954 20-4414): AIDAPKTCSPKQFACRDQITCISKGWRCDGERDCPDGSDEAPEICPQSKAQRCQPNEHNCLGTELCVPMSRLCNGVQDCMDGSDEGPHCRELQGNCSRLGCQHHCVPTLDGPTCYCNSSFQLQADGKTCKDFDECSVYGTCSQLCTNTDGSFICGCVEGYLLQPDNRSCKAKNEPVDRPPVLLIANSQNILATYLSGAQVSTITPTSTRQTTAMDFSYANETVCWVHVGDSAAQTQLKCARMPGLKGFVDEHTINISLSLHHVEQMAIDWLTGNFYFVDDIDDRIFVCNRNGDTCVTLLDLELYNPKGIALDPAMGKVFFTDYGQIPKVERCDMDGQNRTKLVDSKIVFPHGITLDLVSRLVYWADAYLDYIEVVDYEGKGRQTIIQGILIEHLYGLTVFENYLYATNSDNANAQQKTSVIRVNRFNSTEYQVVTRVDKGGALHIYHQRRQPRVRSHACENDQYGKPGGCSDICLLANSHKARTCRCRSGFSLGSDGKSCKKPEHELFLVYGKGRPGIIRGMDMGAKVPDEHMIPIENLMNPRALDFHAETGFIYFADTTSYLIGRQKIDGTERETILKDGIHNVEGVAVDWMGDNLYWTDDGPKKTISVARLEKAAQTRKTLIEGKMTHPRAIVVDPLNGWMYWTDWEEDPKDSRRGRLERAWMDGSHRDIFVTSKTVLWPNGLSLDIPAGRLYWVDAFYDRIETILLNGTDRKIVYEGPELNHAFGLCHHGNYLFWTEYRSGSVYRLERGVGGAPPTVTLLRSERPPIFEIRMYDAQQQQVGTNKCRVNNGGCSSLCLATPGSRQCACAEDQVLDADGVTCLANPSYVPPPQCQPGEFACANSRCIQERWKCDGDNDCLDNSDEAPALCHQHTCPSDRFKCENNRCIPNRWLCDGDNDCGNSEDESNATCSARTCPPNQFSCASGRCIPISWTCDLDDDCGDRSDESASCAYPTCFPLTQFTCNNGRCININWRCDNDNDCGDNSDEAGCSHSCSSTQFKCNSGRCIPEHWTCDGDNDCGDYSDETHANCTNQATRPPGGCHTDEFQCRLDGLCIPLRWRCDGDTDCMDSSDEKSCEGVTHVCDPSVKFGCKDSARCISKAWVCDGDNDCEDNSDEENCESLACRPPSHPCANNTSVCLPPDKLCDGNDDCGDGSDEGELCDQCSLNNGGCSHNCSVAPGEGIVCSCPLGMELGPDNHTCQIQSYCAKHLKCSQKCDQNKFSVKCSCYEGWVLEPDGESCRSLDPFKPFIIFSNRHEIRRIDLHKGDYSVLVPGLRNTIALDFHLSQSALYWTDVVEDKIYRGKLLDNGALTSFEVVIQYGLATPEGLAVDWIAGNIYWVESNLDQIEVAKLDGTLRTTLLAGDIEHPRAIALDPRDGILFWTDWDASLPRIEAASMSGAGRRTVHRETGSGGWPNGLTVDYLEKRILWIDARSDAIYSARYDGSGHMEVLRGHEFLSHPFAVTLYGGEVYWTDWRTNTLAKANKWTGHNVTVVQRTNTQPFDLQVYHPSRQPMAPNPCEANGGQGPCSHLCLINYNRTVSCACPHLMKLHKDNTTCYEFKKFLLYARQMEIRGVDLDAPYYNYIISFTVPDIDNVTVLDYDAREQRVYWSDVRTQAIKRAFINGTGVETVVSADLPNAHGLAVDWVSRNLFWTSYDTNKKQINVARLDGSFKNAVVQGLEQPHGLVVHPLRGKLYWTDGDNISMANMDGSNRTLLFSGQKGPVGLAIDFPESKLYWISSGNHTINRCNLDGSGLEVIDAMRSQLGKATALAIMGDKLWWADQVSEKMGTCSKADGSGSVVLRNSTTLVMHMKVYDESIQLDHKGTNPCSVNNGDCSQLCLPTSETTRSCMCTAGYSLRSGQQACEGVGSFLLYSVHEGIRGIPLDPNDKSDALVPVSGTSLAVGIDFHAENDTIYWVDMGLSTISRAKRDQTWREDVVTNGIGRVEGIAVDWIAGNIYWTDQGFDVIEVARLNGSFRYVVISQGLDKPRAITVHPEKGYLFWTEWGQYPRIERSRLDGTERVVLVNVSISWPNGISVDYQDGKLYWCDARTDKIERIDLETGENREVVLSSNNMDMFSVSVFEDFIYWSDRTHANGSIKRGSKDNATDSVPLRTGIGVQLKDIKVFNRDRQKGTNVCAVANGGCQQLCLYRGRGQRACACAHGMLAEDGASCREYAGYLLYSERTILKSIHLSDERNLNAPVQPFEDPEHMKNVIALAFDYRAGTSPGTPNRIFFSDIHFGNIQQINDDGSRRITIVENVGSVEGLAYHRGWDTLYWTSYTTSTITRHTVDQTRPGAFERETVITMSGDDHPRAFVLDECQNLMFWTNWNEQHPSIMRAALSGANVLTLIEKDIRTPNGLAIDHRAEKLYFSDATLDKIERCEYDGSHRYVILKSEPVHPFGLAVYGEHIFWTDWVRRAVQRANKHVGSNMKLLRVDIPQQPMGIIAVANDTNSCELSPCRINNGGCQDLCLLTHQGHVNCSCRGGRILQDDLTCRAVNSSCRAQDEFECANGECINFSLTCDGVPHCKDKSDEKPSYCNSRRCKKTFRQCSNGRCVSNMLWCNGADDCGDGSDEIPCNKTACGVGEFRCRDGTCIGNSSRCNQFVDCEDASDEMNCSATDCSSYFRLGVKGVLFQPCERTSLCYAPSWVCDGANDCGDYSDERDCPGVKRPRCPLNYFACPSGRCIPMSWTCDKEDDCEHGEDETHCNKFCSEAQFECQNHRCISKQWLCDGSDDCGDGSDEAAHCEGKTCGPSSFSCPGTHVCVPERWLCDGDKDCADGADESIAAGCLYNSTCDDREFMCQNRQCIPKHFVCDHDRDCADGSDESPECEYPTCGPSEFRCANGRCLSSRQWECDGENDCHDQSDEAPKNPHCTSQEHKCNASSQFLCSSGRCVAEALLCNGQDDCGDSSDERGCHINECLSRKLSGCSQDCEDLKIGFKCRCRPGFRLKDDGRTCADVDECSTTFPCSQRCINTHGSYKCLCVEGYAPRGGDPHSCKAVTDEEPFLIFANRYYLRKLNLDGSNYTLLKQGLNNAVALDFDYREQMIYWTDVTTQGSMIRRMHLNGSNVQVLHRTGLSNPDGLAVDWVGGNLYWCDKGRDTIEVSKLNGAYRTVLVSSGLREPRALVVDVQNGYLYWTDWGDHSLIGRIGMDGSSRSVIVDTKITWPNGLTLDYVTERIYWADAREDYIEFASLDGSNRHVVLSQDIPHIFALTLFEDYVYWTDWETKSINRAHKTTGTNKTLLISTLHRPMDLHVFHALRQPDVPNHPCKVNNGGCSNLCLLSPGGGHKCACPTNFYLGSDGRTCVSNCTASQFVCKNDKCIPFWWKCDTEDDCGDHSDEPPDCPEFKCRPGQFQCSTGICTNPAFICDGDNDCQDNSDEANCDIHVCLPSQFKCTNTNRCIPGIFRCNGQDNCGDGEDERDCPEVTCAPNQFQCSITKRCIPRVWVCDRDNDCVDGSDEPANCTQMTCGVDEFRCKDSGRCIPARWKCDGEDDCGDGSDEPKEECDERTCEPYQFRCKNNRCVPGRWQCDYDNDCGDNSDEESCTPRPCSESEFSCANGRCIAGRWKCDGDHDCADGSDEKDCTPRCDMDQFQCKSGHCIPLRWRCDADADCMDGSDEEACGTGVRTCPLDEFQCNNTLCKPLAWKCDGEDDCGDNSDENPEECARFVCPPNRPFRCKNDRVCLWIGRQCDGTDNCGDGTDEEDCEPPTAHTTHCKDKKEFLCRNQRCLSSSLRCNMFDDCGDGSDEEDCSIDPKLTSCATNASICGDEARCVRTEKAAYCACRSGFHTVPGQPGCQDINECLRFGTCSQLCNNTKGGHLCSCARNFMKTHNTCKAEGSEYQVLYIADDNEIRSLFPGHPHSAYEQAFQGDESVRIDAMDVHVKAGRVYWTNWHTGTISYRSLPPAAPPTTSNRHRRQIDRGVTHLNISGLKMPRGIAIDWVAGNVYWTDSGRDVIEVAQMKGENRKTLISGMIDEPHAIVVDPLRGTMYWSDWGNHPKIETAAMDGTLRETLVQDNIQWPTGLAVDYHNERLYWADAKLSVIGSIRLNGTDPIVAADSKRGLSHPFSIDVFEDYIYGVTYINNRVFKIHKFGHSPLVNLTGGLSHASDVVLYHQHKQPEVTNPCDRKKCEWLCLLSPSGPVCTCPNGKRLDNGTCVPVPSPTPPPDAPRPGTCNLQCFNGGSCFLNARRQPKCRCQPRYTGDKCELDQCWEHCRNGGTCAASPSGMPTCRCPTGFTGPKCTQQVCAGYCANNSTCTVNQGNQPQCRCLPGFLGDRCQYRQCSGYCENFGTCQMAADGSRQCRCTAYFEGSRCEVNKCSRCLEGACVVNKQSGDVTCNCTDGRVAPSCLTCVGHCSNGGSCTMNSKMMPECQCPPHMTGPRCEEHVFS

binding result: binds
B1: Recombinant mouse SAA1 (purified SAA1, tag state not stated) (natural protein, UniProt P05366 20-122, looked up)
chain: GFFSFVHEAFQGAGDMWRAYTDMKEANWKNSDKYFHARGNYDAAQRGPGGVWAAEKISDGREAFQEFFGRGHEDTIADQEANRHGRSGKDPNYYRPPGLPDKY

Source: paper PMC8532503 (Science (New York, N.Y.), 2021)
